Experimental data reported in article PMC4132754 (Nucleic Acids Research, 2014).

B1: SBP-UPF1 WT (natural protein)
chain: MSVEAYGPSSQTLTFLDTEEAELLGADTQGSEFEFTDFTLPSQTQTPPGGPGGPGGGGAGGPGGAGAGAAAGQLDAQVGPEGILQNGAVDDSVAKTSQLLAELNFEEDEEDTYYTKDLPIHACSYCGIHDPACVVYCNTSKKWFCNGRGNTSGSHIVNHLVRAKCKEVTLHKDGPLGETVLECYNCGCRNVFLLGFIPAKADSVVVLLCRQPCASQSSLKDINWDSSQWQPLIQDRCFLSWLVKIPSEQEQLRARQITAQQINKLEELWKENPSATLEDLEKPGVDEEPQHVLLRYEDAYQYQNIFGPLVKLEADYDKKLKESQTQDNITVRWDLGLNKKRIAYFTLPKTDSDMRLMQGDEICLRYKGDLAPLWKGIGHVIKVPDNYGDEIAIELRSSVGAPVEVTHNFQVDFVWKSTSFDRMQSALKTFAVDETSVSGYIYHKLLGHEVEDVIIKCQLPKRFTAQGLPDLNHSQVYAVKTVLQRPLSLIQGPPGTGKTVTSATIVYHLARQGNGPVLVCAPSNIAVDQLTEKIHQTGLKVVRLCAKSREAIDSPVSFLALHNQIRNMDSMPELQKLQQLKDETGELSSADEKRYRALKRTAERELLMNADVICCTCVGAGDPRLAKMQFRSILIDESTQATEPECMVPVVLGAKQLILVGDHCQLGPVVMCKKAAKAGLSQSLFERLVVLGIRPIRLQVQYRMHPALSAFPSNIFYEGSLQNGVTAADRVKKGFDFQWPQPDKPMFFYVTQGQEEIASSGTSYLNRTEAANVEKITTKLLKAGAKPDQIGIITPYEGQRSYLVQYMQFSGSLHTKLYQEVEIASVDAFQGREKDFIILSCVRANEHQGIGFLNDPRRLNVALTRARYGVIIVGNPKALSKQPLWNHLLNYYKEQKVLVEGPLNNLRESLMQFSKPRKLVNTINPGARFMTTAMYDAREAIIPGSVYDRSSQGRPSSMYFQTHDQIGMISAGPSHVAAMNIPIPFNLVMPPMPPPGYFGQANGPAAGRGTPKGKTGRGGRQKNRFGLPGPSQTNLPNSQASQDVASQPFSQGALTQGYISMSQPSQMSQPGLSQPELSQDSYLGDEFKSQIDVALSQDSTYQGERAYQHGGVTGLSQY
B2: SBP-UPF1 ΔStalkΔSQ1 (domain or fragment)
chain: MSVEAYGPSSQTLTFLDTEEAELLGADTQGSEFEFTDFTLPSQTQTPPGGPGGPGGGGAGGPGGAGAGAAAGQLDAQVGPEGILQNGAVDDSVAKTSQLLAELNFEEDEEDTYYTKDLPIHACSYCGIHDPACVVYCNTSKKWFCNGRGNTSGSHIVNHLVRAKCKEVTLHKDGPLGETVLECYNCGCRNVFLLGFIPAKADSVVVLLCRQPCASQSSLKDINWDSSQWQPLIQDRCFLSWLVKIPSEQEQLRARQITAQQINKLEELWKETSVSGYIYHKLLGHEVEDVIIKCQLPKRFTAQGLPDLNHSQVYAVKTVLQRPLSLIQGPPGTGKTVTSATIVYHLARQGNGPVLVCAPSNIAVDQLTEKIHQTGLKVVRLCAKSREAIDSPVSFLALHNQIRNMDSMPELQKLQQLKDETGELSSADEKRYRALKRTAERELLMNADVICCTCVGAGDPRLAKMQFRSILIDESTQATEPECMVPVVLGAKQLILVGDHCQLGPVVMCKKAAKAGLSQSLFERLVVLGIRPIRLQVQYRMHPALSAFPSNIFYEGSLQNGVTAADRVKKGFDFQWPQPDKPMFFYVTQGQEEIASSGTSYLNRTEAANVEKITTKLLKAGAKPDQIGIITPYEGQRSYLVQYMQFSGSLHTKLYQEVEIASVDAFQGREKDFIILSCVRANEHQGIGFLNDPRRLNVALTRARYGVIIVGNPKALSKQPLWNHLLNYYKEQKVLVEGPLNNLRESLMQFSKPRKLVNTINPGARFMTTAMYDAREAIIPGSVYDRSSQGRPSSMYFQTHDQIGMISAGPSHVAAMNIPIPFNLVMPPMPPPGYFGQANGPAAGRGTPKGKTGRGG
B3: SBP-UPF1 Δ1C (natural protein)
chain: MSVEAYGPSSQTLTFLDTEEAELLGADTQGSEFEFTDFTLPSQTQTPPGGPGGPGGGGAGGPGGAGAGAAAGQLDAQVGPEGILQNGAVDDSVAKTSQLLAELNFEEDEEDTYYTKDLPIHACSYCGIHDPACVVYCNTSKKWFCNGRGNTSGSHIVNHLVRAKCKEVTLHKDGPLGETVLECYNCGCRNVFLLGFIPAKADSVVVLLCRQPCASQSSLKDINWDSSQWQPLIQDRCFLSWLVKIPSEQEQLRARQITAQQINKLEELWKENPSATLEDLEKPGVDEEPQHVLLRYEDAYQYQNIFGPLVKLEADYDKKLKESQTQDNITVRWDLGLNKKRIAYFTLPKTDSDMRLMQGDEICLRYKGDLAPLWKGIGHVIKVPDNYGDEIAIELRSSVGAPVEVTHNFQVDFVWKSTSFDRMQSALKTFAVDETSVSGYIYHKLLGHEVEDVIIKCQLPKRFTAQGLPDLNHSQVYAVKTVLQRPLSLIQGPPGTGKTVTSATIVYHLARQGNGPVLVCAPSNIAVDQLTEKIHQTGLKVVRLCAKSREAIDSPVSFLANADVICCTCVGAGDPRLAKMQFRSILIDESTQATEPECMVPVVLGAKQLILVGDHCQLGPVVMCKKAAKAGLSQSLFERLVVLGIRPIRLQVQYRMHPALSAFPSNIFYEGSLQNGVTAADRVKKGFDFQWPQPDKPMFFYVTQGQEEIASSGTSYLNRTEAANVEKITTKLLKAGAKPDQIGIITPYEGQRSYLVQYMQFSGSLHTKLYQEVEIASVDAFQGREKDFIILSCVRANEHQGIGFLNDPRRLNVALTRARYGVIIVGNPKALSKQPLWNHLLNYYKEQKVLVEGPLNNLRESLMQFSKPRKLVNTINPGARFMTTAMYDAREAIIPGSVYDRSSQGRPSSMYFQTHDQIGMISAGPSHVAAMNIPIPFNLVMPPMPPPGYFGQANGPAAGRGTPKGKTGRGGRQKNRFGLPGPSQTNLPNSQASQDVASQPFSQGALTQGYISMSQPSQMSQPGLSQPELSQDSYLGDEFKSQIDVALSQDSTYQGERAYQHGGVTGLSQY

Biological target: Flag-HA-SBP-SMG6 (human, UniProt Q86US8 1-1419)
Sequence (Q86US8 whole entry): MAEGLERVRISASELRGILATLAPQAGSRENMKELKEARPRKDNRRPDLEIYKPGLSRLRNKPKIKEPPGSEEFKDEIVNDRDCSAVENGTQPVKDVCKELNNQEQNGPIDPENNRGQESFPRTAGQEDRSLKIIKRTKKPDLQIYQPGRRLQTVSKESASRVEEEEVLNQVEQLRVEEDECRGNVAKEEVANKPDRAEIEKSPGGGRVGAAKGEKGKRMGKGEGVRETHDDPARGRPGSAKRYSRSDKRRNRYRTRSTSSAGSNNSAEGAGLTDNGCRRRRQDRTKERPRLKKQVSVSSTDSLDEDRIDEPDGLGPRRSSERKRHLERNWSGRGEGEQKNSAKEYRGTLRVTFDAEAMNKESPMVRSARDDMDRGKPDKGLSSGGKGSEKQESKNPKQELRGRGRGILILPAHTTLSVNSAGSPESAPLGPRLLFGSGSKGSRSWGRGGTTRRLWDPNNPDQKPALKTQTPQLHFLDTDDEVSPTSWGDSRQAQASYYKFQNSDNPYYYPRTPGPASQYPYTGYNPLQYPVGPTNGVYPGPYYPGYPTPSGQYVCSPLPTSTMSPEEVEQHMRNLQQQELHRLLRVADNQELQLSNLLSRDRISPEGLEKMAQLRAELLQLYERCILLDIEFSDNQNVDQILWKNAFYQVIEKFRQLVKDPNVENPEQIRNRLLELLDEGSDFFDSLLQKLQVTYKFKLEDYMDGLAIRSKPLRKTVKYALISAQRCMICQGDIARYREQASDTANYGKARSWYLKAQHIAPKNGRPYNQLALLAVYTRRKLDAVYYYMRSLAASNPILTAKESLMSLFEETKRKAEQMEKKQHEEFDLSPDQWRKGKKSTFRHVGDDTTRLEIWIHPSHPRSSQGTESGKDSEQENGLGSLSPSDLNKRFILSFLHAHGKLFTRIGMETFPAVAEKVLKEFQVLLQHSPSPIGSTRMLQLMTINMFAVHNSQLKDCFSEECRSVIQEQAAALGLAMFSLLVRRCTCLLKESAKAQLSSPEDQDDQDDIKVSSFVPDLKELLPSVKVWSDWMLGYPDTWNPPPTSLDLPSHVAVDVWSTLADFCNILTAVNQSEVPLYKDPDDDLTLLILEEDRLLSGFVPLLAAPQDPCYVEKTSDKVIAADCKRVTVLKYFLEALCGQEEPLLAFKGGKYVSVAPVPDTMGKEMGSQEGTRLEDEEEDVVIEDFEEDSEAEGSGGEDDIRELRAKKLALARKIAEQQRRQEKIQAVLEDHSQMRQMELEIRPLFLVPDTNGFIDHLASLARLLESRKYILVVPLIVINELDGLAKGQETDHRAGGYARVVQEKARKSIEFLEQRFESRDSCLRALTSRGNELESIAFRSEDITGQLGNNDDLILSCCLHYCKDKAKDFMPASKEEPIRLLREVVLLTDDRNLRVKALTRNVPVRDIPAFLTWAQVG
Assay: pull-down

| Binder | binding result |
| --- | --- |
| B1 | binds |
| B2 | binds |
| B3 | binds |
